Test [1] concerns the target T1, Ag4G (Bio-EEFLN(GlcNAc)QSSP).
T1 peptide: Biotin-EEFLN(GlcNAc)QSSP
In words: QC ELISA of the IgG on its target peptide.

For test [2], the target named is T2, Ag1G (Bio-REIRHN(GlcNAc)STGC).
T2 peptide: Biotin-REIRHN(GlcNAc)STGC
As to the kind of experiment: QC ELISA of the IgG on its target peptide.

No end group written: not given here. *: point of attachment. Biotin = O=C1N[C@H]2[C@H](CS[C@H]2CCCCC(=O)*)N1; GlcNAc = N-acetylglucosamine

B1: Ag4G-6 (antibody, V domains shown)
VH: QQLEESGGRLVTPGTPLTLTCTASGMDLSKYWMTWVRQAPGKGLEYIGIIETGGSAYYASWAKGRFTISRTSTTVDLKMISPTTEDTATYFCGRWGDIWGPGTLVTVSS
VL: MTQTPASVEVAVGGTVTIKCQASQSINGYLAWYQQKPGQPPKLLIYQASTLASGVSSRFQGSGSGTEYTLTISGVQCDDAATYYCQGDYYGWIRTFGGGTEVVVKR
notes: Rabbit/human chimeric clone from a Fab phage library; tested 'in the form of IgG'; the FWR4 entries as printed run on into human C kappa (light) and human CH1 plus His tag (heavy), i.e. the Fab format; also called Apo J-GlcNAc Ag4G-6
Turning to B1, the binding result in test [1] is “binds”.

B2: Ag1G-11 (antibody, V domains shown)
VH: QSLEESGGRLVTPGGSLTLTCTVSGFSLSSYAMSWVRQAPGKGLEWIGIIGVNGDTYYASWAKGRFTISKTSTTVGLKITSPTTEDTATYFCARVRYPYYDTDAFDPWGPGTLVTISS
VL: DPVLTQTPSPVSAAVGGTVTINCQASQSVYNNNELSWYQQKPGQPPKPLIYQASKLASGVPSRFKGSGSGTQFTLTISDLECDDAATYYCQGIYLGSDWYDVFGGGTEVVVKR
notes: Rabbit/human chimeric clone from a Fab phage library; tested 'in the form of IgG'; the FWR4 entries as printed run on into human C kappa (light) and human CH1 plus His tag (heavy), i.e. the Fab format; also called Apo J-GlcNAc Ag1G-11
B2: the binding result in test [2] is given as “binds”.
